From patent publication US7745151B2, “Methods of determining binding between Nogo receptor and p75 neurotrophin receptor” (Children's Medical Center Corporation, priority 2002, dated 2010) come the findings set out here.

One assay relates to DRG neurons. Description: Neurite outgrowth assay, wild type versus P75 mutant neurons. Format: cell-based, mice. The source says: We use a neurite outgrowth assay to compare the responses of neurons from wild type mice and those carrying a mutation in the P75 gene to individual inhibitors (Lee et al., Cell 1992 May 29; 69(5):737-49). Neurite outgrowth of DRG neurons from P75 (−/−) was not inhibited by MAG-Fc.

Assay [1] has as its target T1, CHO cells expressing full-length NgR (Homo sapiens, UniProt Q9BZR6).
T1 construct: expressed in transfected cells; host or cells: CHO cells
T1 sequence (Q9BZR6 27-473): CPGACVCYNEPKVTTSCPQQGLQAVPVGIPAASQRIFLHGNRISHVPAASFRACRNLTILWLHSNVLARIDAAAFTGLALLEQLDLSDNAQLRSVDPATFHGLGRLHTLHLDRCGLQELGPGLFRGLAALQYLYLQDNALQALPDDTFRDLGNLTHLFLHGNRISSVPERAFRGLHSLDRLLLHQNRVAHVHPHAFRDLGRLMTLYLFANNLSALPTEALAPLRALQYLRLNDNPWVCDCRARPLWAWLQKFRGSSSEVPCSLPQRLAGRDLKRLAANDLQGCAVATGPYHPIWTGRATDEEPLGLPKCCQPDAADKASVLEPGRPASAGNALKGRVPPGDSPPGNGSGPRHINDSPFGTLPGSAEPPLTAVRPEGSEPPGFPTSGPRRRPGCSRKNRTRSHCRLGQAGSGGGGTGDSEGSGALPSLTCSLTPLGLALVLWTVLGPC
Description: Cell surface binding assay of AP-p75. The source says: When we overexpress HA-tagged P75 and FLAG-tagged NgR into CHO cells, we find that p75 can be co-immunoprecipitated with NgR, but not with a control transmembrane protein Plexin A3. We also utilize a cell surface binding assay to better visualize the NgR/P75 interaction.
Upon expression in cerebellar granule neurons (CGNs), this truncated NgR, but not full-length NgR, blocks the inhibitory responses elicited by immobilized inhibitors.
Exemplary experimental protocols: Binding experiments: Sequence encoding the extracellular domain of rat p75 was subcloned into the expression vector AP-5 to express an AP-p75 fusion protein tagged with both a polyhistidine and a myc epitope. The resultant plasmid DNA was transfected into COS-7 cells and the secreted protein purified using nickel-Agarose resins (Qiagen). Cell surface binding with AP-p75 and other AP proteins were performed as described previously. For visualization of bound proteins, NBT and BCIP were used as AP substrates.

B1: OM-his: myelin inhibitor protein; his-tagged OMgp (protein, UniProt P23515 25-417, looked up)
Oligodendrocyte-myelin …: ICPLQCICTERHRHVDCSGRNLSTLPSGLQENIIHLNLSYNHFTDLHNQLTQYTNLRTLDISNNRLESLPAHLPRSLWNMSAANNNIKLLDKSDTAYQWNLKYLDVSKNMLEKVVLIKNTLRSLEVLNLSSNKLWTVPTNMPSKLHIVDLSNNSLTQILPGTLINLTNLTHLYLHNNKFTFIPDQSFDQLFQLQEITLYNNRWSCDHKQNITYLLKWMMETKAHVIGTPCSTQISSLKEHNMYPTPSGFTSSLFTVSGMQTVDTINSLSVVTQPKVTKIPKQYRTKETTFGATLSKDTTFTSTDKAFVPYPEDTSTETINSHEAAAATLTIHLQDGMVTNTSLTSSTKSSPTPMTLSITSGMPNNFSEMPQQSTTLNLWREETTTNVKTPLPS
modifications: His tag
notes: his-tagged OMgp
Take B1: the values for the neurite outgrowth inhibition entry in the assay with DRG neurons (neurons from P75 (-/-) mice) and in the assay with DRG neurons (wild type neurons) were “neither of these proteins restrict neurite outgrowth” and “efficiently inhibited”, respectively.

B2: AP-p75: alkaline phosphatase (AP) fusion protein containing the extracellular domain of P75 (protein)
chain: KETCSTGLYTHSGECCKACNLGEGVAQPCGANQTVCEPCLDNVTFSDVVSATEPCKPCTECLGLQSMSAPCVEADDAVCRCAYGYYQDEETGHCEACSVCEVGSGLVFSCQDKQNTVCEECPEGTYSDEANHVDPCLPCTVCEDTERQLRECTPWADAECEEIPGRWIPRSTPPEGSDSTAPSTQEPEVPPEQDLVPSTVADMVTTVMGSSQPVVTRGTTDNLI
modifications: left off: large carriers; small tags and cut ends
B2: the “binding of AP-p75 to NgR-expressing cells” value in assay [1] is recorded as “able to bind CHO cells expressing full-length NgR specifically”.
